The chains are these.
T1: EsCas13d, nuclease-dead (Eubacterium siraeum, UniProt B0MS50, R295A;H300A;R849A;H854A)
T1 sequence: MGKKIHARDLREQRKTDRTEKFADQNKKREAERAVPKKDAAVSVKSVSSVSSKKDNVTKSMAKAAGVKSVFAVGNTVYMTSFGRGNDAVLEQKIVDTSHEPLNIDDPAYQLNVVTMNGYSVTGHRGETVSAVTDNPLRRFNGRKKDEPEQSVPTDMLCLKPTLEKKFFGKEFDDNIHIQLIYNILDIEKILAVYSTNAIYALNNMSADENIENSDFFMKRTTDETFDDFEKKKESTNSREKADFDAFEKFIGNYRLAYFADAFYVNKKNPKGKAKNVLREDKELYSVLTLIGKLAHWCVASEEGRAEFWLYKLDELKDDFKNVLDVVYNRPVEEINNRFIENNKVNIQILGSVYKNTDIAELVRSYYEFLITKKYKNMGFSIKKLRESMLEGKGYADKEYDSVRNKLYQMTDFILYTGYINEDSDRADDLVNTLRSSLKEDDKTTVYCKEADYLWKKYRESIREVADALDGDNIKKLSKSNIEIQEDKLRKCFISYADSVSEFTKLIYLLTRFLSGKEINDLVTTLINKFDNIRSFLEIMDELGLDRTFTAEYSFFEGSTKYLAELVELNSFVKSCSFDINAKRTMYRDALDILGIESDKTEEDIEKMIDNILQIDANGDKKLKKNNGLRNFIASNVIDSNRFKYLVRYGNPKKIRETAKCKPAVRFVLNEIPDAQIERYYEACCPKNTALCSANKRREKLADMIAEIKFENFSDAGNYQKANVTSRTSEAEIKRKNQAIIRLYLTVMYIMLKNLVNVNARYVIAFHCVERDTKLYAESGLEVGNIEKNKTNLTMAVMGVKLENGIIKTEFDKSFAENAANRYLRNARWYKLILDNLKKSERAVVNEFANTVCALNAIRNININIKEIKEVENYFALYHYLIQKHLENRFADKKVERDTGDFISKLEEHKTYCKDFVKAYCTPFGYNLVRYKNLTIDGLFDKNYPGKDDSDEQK

B1: target 1 C2U,U19A (mixed)
RNA 1: CACCCGUGCAAAAAUGCAGGGGUCUAAAACUGAGCGGAUAACCUCUCUAUGG
RNA 2: GGGAAUGGAUCCACAUCUACGAAUUCGUACCAAAGAGAGGUUAUCCGCUUACCGAGAUCGGAAGAGCACACGU
B2: target 1 G5C,U11A (mixed)
RNA 1: CACCCGUGCAAAAAUGCAGGGGUCUAAAACUGAGCGGAUAACCUCUCUAUGG
RNA 2: GGGAAUGGAUCCACAUCUACGAAUUCGUACCAUAGAGAGGAUAUCCCCUCACCGAGAUCGGAAGAGCACACGU
B3: target 1 insC 3' of 3,insU 3' of 1 (mixed)
RNA 1: CACCCGUGCAAAAAUGCAGGGGUCUAAAACUGAGCGGAUAACCUCUCUAUGG
RNA 2: GGGAAUGGAUCCACAUCUACGAAUUCGUACCAUAGAGAGGUUAUCCGCUCCAUCCGAGAUCGGAAGAGCACACGU
B4: target 1 insC 3' of 18,insA 3' of 13 (mixed)
RNA 1: CACCCGUGCAAAAAUGCAGGGGUCUAAAACUGAGCGGAUAACCUCUCUAUGG
RNA 2: GGGAAUGGAUCCACAUCUACGAAUUCGUACCAUACGAGAGAGUUAUCCGCUCACCGAGAUCGGAAGAGCACACGU
B5: target 1 A1C,A9C (mixed)
RNA 1: CACCCGUGCAAAAAUGCAGGGGUCUAAAACUGAGCGGAUAACCUCUCUAUGG
RNA 2: GGGAAUGGAUCCACAUCUACGAAUUCGUACCAUAGAGAGGUUCUCCGCUCCCCGAGAUCGGAAGAGCACACGU
B6: target 1 insC 3' of 19,insA 3' of 4 (mixed)
RNA 1: CACCCGUGCAAAAAUGCAGGGGUCUAAAACUGAGCGGAUAACCUCUCUAUGG
RNA 2: GGGAAUGGAUCCACAUCUACGAAUUCGUACCAUCAGAGAGGUUAUCCGCAUCACCGAGAUCGGAAGAGCACACGU
B7: target 1 C4G,A16G (mixed)
RNA 1: CACCCGUGCAAAAAUGCAGGGGUCUAAAACUGAGCGGAUAACCUCUCUAUGG
RNA 2: GGGAAUGGAUCCACAUCUACGAAUUCGUACCAUAGGGAGGUUAUCCGGUCACCGAGAUCGGAAGAGCACACGU
B8: target 1 insU 3' of 9,insC 3' of 1 (mixed)
RNA 1: CACCCGUGCAAAAAUGCAGGGGUCUAAAACUGAGCGGAUAACCUCUCUAUGG
RNA 2: GGGAAUGGAUCCACAUCUACGAAUUCGUACCAUAGAGAGGUUAUUCCGCUCACCCGAGAUCGGAAGAGCACACGU
B9: target 1 insC 3' of 11,insA 3' of 7 (mixed)
RNA 1: CACCCGUGCAAAAAUGCAGGGGUCUAAAACUGAGCGGAUAACCUCUCUAUGG
RNA 2: GGGAAUGGAUCCACAUCUACGAAUUCGUACCAUAGAGAGGUCUAUCACGCUCACCGAGAUCGGAAGAGCACACGU
B10: target 1 insC 3' of 15,insC 3' of 5 (mixed)
RNA 1: CACCCGUGCAAAAAUGCAGGGGUCUAAAACUGAGCGGAUAACCUCUCUAUGG
RNA 2: GGGAAUGGAUCCACAUCUACGAAUUCGUACCAUAGAGCAGGUUAUCCGCCUCACCGAGAUCGGAAGAGCACACGU
B11: target 1 U8C,A20C (mixed)
RNA 1: CACCCGUGCAAAAAUGCAGGGGUCUAAAACUGAGCGGAUAACCUCUCUAUGG
RNA 2: GGGAAUGGAUCCACAUCUACGAAUUCGUACCCUAGAGAGGUUACCCGCUCACCGAGAUCGGAAGAGCACACGU
B12: target 1 insC 3' of 22,insG 3' of 21 (mixed)
RNA 1: CACCCGUGCAAAAAUGCAGGGGUCUAAAACUGAGCGGAUAACCUCUCUAUGG
RNA 2: GGGAAUGGAUCCACAUCUACGAAUUCGUACCCGAUAGAGAGGUUAUCCGCUCACCGAGAUCGGAAGAGCACACGU
B13: target 1 U10C,G17U (mixed)
RNA 1: CACCCGUGCAAAAAUGCAGGGGUCUAAAACUGAGCGGAUAACCUCUCUAUGG
RNA 2: GGGAAUGGAUCCACAUCUACGAAUUCGUACCAUAUAGAGGUCAUCCGCUCACCGAGAUCGGAAGAGCACACGU
B14: target 1 insU 3' of 4,insG 3' of 3 (mixed)
RNA 1: CACCCGUGCAAAAAUGCAGGGGUCUAAAACUGAGCGGAUAACCUCUCUAUGG
RNA 2: GGGAAUGGAUCCACAUCUACGAAUUCGUACCAUAGAGAGGUUAUCCGCUUGCACCGAGAUCGGAAGAGCACACGU
B15: target 1 insA 3' of 15,insA 3' of 3 (mixed)
RNA 1: CACCCGUGCAAAAAUGCAGGGGUCUAAAACUGAGCGGAUAACCUCUCUAUGG
RNA 2: GGGAAUGGAUCCACAUCUACGAAUUCGUACCAUAGAGAAGGUUAUCCGCUACACCGAGAUCGGAAGAGCACACGU
B16: target 1 insC 3' of 1,insG 3' of 1 (mixed)
RNA 1: CACCCGUGCAAAAAUGCAGGGGUCUAAAACUGAGCGGAUAACCUCUCUAUGG
RNA 2: GGGAAUGGAUCCACAUCUACGAAUUCGUACCAUAGAGAGGUUAUCCGCUCACGCCGAGAUCGGAAGAGCACACGU
B17: target 1 insG 3' of 11,insU 3' of 7 (mixed)
RNA 1: CACCCGUGCAAAAAUGCAGGGGUCUAAAACUGAGCGGAUAACCUCUCUAUGG
RNA 2: GGGAAUGGAUCCACAUCUACGAAUUCGUACCAUAGAGAGGUGUAUCUCGCUCACCGAGAUCGGAAGAGCACACGU
B18: target 1 A16C,A18U (mixed)
RNA 1: CACCCGUGCAAAAAUGCAGGGGUCUAAAACUGAGCGGAUAACCUCUCUAUGG
RNA 2: GGGAAUGGAUCCACAUCUACGAAUUCGUACCAUUGCGAGGUUAUCCGCUCACCGAGAUCGGAAGAGCACACGU
B19: target 1 insC 3' of 1,insC 3' of 1 (mixed)
RNA 1: CACCCGUGCAAAAAUGCAGGGGUCUAAAACUGAGCGGAUAACCUCUCUAUGG
RNA 2: GGGAAUGGAUCCACAUCUACGAAUUCGUACCAUAGAGAGGUUAUCCGCUCACCCCGAGAUCGGAAGAGCACACGU
B20: target 1 insC 3' of 3,insA 3' of 3 (mixed)
RNA 1: CACCCGUGCAAAAAUGCAGGGGUCUAAAACUGAGCGGAUAACCUCUCUAUGG
RNA 2: GGGAAUGGAUCCACAUCUACGAAUUCGUACCAUAGAGAGGUUAUCCGCUCACACCGAGAUCGGAAGAGCACACGU
B21: target 1 insA 3' of 22,insA 3' of 12 (mixed)
RNA 1: CACCCGUGCAAAAAUGCAGGGGUCUAAAACUGAGCGGAUAACCUCUCUAUGG
RNA 2: GGGAAUGGAUCCACAUCUACGAAUUCGUACACAUAGAGAGGAUUAUCCGCUCACCGAGAUCGGAAGAGCACACGU
B22: target 1 A9C (mixed)
RNA 1: CACCCGUGCAAAAAUGCAGGGGUCUAAAACUGAGCGGAUAACCUCUCUAUGG
RNA 2: GGGAAUGGAUCCACAUCUACGAAUUCGUACCAUAGAGAGGUUCUCCGCUCACCGAGAUCGGAAGAGCACACGU
B23: target 1 insC 3' of 11,insA 3' of 2 (mixed)
RNA 1: CACCCGUGCAAAAAUGCAGGGGUCUAAAACUGAGCGGAUAACCUCUCUAUGG
RNA 2: GGGAAUGGAUCCACAUCUACGAAUUCGUACCAUAGAGAGGUCUAUCCGCUCAACCGAGAUCGGAAGAGCACACGU

We go through 23 molecules from PMC10786891, “Massively parallel profiling of RNA-targeting CRISPR-Cas13d”.

This data set addresses T1, EsCas13d, nuclease-dead. As to the kind of experiment: crRNA (strand 1, pre-loaded); Mg2+; 40 mM Tris-HCl pH 7.5, 150 mM NaCl, 6 mM MgCl2, 1 mM DTT, 0.1% Tween-20, 0.2 mg/ml BSA; 25 C; 10 min per concentration, then washed. Particulars: tags: His6-TwinStrep-SUMO cleaved; N-terminal SNAP kept (SNAP-Surface 488); label: 3' end held by stalled T7 RNA polymerase.
For orientation: Kd means the constant that tells how readily two partners part at equilibrium. A high value points to a looser complex. Consider B1, for which the affinity, expressed as Kd, was 26.5 ± 2.9 nM.
With B2, the Kd is 46 ± 10 nM.
In the case of B3 it was 10.8 ± 0.8 nM; in that of B4, 24.4 ± 1.9 nM; in that of B5, 22.5 ± 3 nM.
In the case of B6 it was 25 ± 6 nM; in that of B7, 16.3 ± 3.2 nM; in that of B8, 14.8 ± 0.7 nM.
For B9, the Kd amounted to 25.7 ± 1.5 nM. This Kd is about 1.7-fold higher than that of the molecule before.
In the case of B10 it was 9.8 ± 0.4 nM; in that of B11, 65 ± 7 nM.
Take B12: the Kd is 27.3 ± 3.1 nM.
Regarding B13, the equilibrium dissociation constant (Kd) was determined as 55 ± 4 nM.
Molecule B14 gave a Kd of 7.77 ± 0.31 nM.
B15 displayed a Kd of 7.48 ± 0.34 nM.
In the case of B16 it was 9 ± 0.7 nM.
B17 displayed a Kd of 24.9 ± 0.8 nM.
In the case of B18 it was 89 ± 11 nM; in that of B19, 11.2 ± 0.5 nM; in that of B20, 9.8 ± 0.5 nM.
In turn, B21 returned a dissociation constant Kd of 47 ± 8 nM.
In the case of B22 it was 15 ± 0.7 nM.
In the case of B23 it was 38 ± 4 nM.
